Read-outs that look alike come from different tables or passages of the source.
Target: T1, rat HER2 (Rattus norvegicus, UniProt P06494)
T1 construct: Human, rhesus and rat HER2-ECD-Fc (SINO Biological, Beijing, China, Cat. Nr: 10004-H02H, 90020-K02H, and 80079-R02H); Fc (C); purchased SINO Biological 80079-R02H
Assay: Surface Plasmon Resonance, rat HER2-ECD-Fc
Format: binding
Experimental: To characterize the affinity of [^19F]GE-226[SEQ ID NO 1] to HER2 protein, Surface Plasmon Resonance studies were conducted. Human, rhesus and rat HER2-ECD-Fc (SINO Biological, Beijing, China, Cat. Nr: 10004-H02H, 90020-K02H, and 80079-R02H), as well as human HER2-ECD-Fc-6×His (R&D Systems, Minneapolis, Minn., Cat. Nr: 1129-ER) and p95HER2 ECD-Fc-6×His (Syngene, Cambridge, United Kingdom) were diluted with 50 mM sodium acetate pH 4.5 (Biacore (GE Healthcare, Buckinghamshire, UK) coupling buffer) to a final concentration of 10 μg/mL. Antigen coupling to Biacore sensor chip CMS (Cat. Nr: BR-1005-30) was done according to amine coupling protocol from the instrument manual (Syngene). HBS-EP buffer (10 mM HEPES pH 7.4, 150 mM NaCl, 3 mM EDTA and 0.005% surfactant P20; GE Healthcare, Little Chalfont, United Kingdom, Cat. Nr: BR-1006-69) was used as running buffer and as solvent for the substances. The affinity studies were performed using a Biacore T100 (GE Healthcare). [^19F]GE-226 was diluted in HBS-EP buffer to 50 nM, 25 nM, 12.5 nM, 6.25 nM, 3.125 nM, 1.56 nM, 0.78 nM, 0.39 nM, 0.195 nM, 0.097 nM, 0.049 nM and 0 nM. The flow cells of the first chip comprised of blank, human HER2-ECD-Fc-6×His, p95HER2-ECD-Fc-6×His batch I and p95HER2-ECD-Fc-6×His batch II. The flow cells on the second chip contained blank, human HER2-ECD-Fc, rhesus HER2-ECD-Fc and rat HER2 ECD-Fc. The immobilization of the proteins was validated with protein-A (Sigma-Aldrich, St. Louis, Mo., Cat. Nr: P6031) and anti-human IgG antibody (Perkin Elmer, Waltham, Mass., Cat. Nr: NEF803001EA). [^19F]GE-226[SEQ ID NO 1] was pumped in duplicate over cells in randomized order for 60 sec at 50 μL/min flow rate followed by 120 sec of HBS-EP to monitor dissociation. This was followed by regeneration of the chip with 50 mM sodium hydroxide for 30 sec at 30 μL/min flow rate followed by 60 sec run of HBS-EP to stabilize the surface. Kinetic calculations were performed using Langmuir 1:1 binding model and simultaneous calculation of association and dissociation phase.

T1 sequence (P06494 23-654 limits assumed): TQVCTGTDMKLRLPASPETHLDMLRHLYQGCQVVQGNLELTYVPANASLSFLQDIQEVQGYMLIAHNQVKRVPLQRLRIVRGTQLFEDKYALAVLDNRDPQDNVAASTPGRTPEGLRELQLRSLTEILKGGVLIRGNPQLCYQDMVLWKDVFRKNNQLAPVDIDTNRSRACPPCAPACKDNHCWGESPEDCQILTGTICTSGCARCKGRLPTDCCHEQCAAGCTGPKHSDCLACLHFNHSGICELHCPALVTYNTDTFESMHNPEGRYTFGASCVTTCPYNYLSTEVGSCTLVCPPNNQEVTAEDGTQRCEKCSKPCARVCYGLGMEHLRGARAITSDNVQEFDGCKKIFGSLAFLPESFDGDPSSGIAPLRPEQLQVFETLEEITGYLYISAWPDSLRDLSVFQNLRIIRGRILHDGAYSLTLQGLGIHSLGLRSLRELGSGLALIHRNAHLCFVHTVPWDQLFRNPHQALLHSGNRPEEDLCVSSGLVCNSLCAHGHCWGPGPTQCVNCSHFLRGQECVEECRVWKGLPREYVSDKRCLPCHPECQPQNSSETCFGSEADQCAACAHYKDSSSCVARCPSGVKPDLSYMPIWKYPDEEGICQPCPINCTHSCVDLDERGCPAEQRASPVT

- interaction with rat HER2 (words): did not interact
- interaction with rat HER2 (words) (listed as 19F-Affibody analogue): did not interact
- interaction with rat HER2 (words) (listed as GE-226): not
Substance: [^19F]GE-226: cold unlabeled non-radioactive 19F analogue of the tracer, used for SPR and blocking

— patent US10646600B2, “HER2 polypeptides useful for imaging and monitoring tumors and cancers” (GE HEALTHCARE LIMITED, priority 2013, dated 2020)
